# From patent US20090155239A1, “Novel Protease, Microorganism Producing the Same, and Application Thereof” (SODX CO., LTD., priority 2005, published 2009)
# Like-named read-outs stand apart in the source and are kept apart here. Where a SMILES comes first, the peptide text is derived from it. [ ]: non-standard residue; d: D form. The star is where a group is joined. Sta = CC(C)C[C@H](N)[C@@H](O)CC(=O)O; Isovaleryl = CC(C)CC(=O)*
# Tests used:
# [1] = test system: protease of the present invention; assay type: biochemical, Fusarium sp. strain BLB; settings: for Relative Activity (%): pH 5
# [2] = substrate Gle-Phe-pNA; H-D-Ile-Pro-Arg-pNA taken as 100
# mice = experiment: Acute toxicity test on mice
# [3] = substrate Suc-Ala-Ala-Pro-Leu-pNA; H-D-Ile-Pro-Arg-pNA taken as 100
# Hammarsten casein = experiment: Casein method; assay type: biochemical; settings: final purified product of Example 2
# Description: A 0.5 ml quantity of sample (protease solution) is added to 1.5 ml of Hammarsten casein solution, prepared using 100 mM boric acid buffer (pH 10) so as to have a final concentration of 1 wt. %, and a reaction is carried out at 37° C. for 10 minutes. The reaction is terminated by adding 2 ml of 0.44 M trichloroacetic acid solution. After allowing the reaction mixture to stand for 20 minutes, the precipitate is filtered off. Five milliliters of 0.44 M aqueous sodium carbonate solution and 1 ml of phenol reagent (containing, per 100 ml, 9.1 g of sodium tungstate dihydrate, 2.3 g of sodium molybdate dihydrate, 4.5 ml of phosphoric acid, 9.1 ml of hydrochloric acid, and 13.6 g of lithium sulfate) are added in that order. After allowing the resulting mixture to stand for 20 minutes, the absorbance at an absorption wavelength of 660 nm is measured. In the above measurement, the amount of enzyme that liberates, per minute, an acid-soluble protein hydrolysate corresponding to 1 μg of tyrosine is defined as 1 unit.
# [4] = substrate H-D-Val-Leu-Lys-pNA; H-D-Ile-Pro-Arg-pNA taken as 100
# [5] = substrate Suc-Ala-Ala-Pro-Phe-pNA; H-D-Ile-Pro-Arg-pNA taken as 100
# [6] = substrate H-D-Ile-Pro-Arg-pNA, taken as 100
# [7] = Synthetic substrate method, substrate specificity; assay type: biochemical; settings: substrate Bz-L-Arg-pNA
# fibrin = experiment: Fibrin plate method; assay type: biochemical, bovine
molecule,measurement,setting,value
"O=S(=O)(F)Cc1ccccc1 [PMSF, phenylmethylsulfonyl fluoride]",inhibition of the protease (in words),[1],inhibited
same,Relative Activity (%),[1],59%
c1cnc2c(c1)ccc1cccnc12 [Phenanthroline],Relative Activity (%),[1],100%
"c1ccc(-c2ccccn2)nc1 [2,2′-Bipyridyl]",Relative Activity (%),[1],97%
Chimostatin,Relative Activity (%),[1],100%
"O=C(O)CN(CCN(CC(=O)O)CC(=O)O)CC(=O)O [EDTA, ethylenediaminetetraacetic acid]",Relative Activity (%),[1],100%
"NCCCCCC(=O)O [ε-ACA, ε-aminocaproic acid]",Relative Activity (%),[1],100%
Streptomyces pepsin inhibitor [SPI],Relative Activity (%),[1],100%
"CC(C)C[C@H](NC(=O)[C@H]1O[C@@H]1C(=O)O)C(=O)NCCCCN=C(N)N [E-64, t-epoxysuccinyl-L-leucylamide(4-guanidino)butane]",Relative Activity (%),[1],97%
CC(C)CC(=O)N[C@H](C(=O)N[C@H](C(=O)N[C@@H](CC(C)C)[C@@H](O)CC(=O)N[C@@H](C)C(=O)N[C@@H](CC(C)C)[C@@H](O)CC(=O)O)C(C)C)C(C)C [Pepstatin] (Isovaleryl-VV[Sta]A[Sta]-OH),Relative Activity (%),[1],100%
Streptomyces subtilisin inhibitor (protein) DAPSALYAPSALVLTVGKGVSATTAAPERAVTLTCAPGPSGTHPAAGSACADLAAVGGDLNALTRGEDVMCPMVYDPVLLTVDGVWQGKRVSYERVFSNECEMNAHGSSVFAF,Relative Activity (%),[1],100%
"protease of the present invention: novel trypsin-type serine protease from Fusarium sp. strain BLB, about 27000 on SDS-PAGE, amino acid sequence SEQ ID NO: 1 (protein, listed as Fusarium sp.) MVKFATIVALVAPLVAARPQDRPLIVGGTAASAGDFPFIVSISYQGGPWCGGTLLNANTVLTAAHCTSGRAASAFQVRAGSLNRNSGGVTSSVSSIRIHPSFSSSTLNNDVSILKLSTPIASSSTISYGRLAASGSDPAAGSSATVAGWGATAQGSPSSPVALRKVTIPIVSRATCRAQYGTSAITTNMFCAGLEEGGKDSCQGDSGGPIVDTSNTVIGIVSWGEGCAQPNFSGVYARVGTLRSYIDGQL",Relative Activity (%),[2],0%
same,safety in acute toxicity test,mice,demonstrated the safety
same,Relative Activity (%),[3],0%
same,protease activity by the casein method,Hammarsten casein,634 U/mg
same,Relative Activity (%),[4],21%
same,Relative Activity (%),[5],0%
same,Relative Activity (%),[6],100%
same,degrading activity on synthetic substrate (in words),[7],has degrading activity
same,Relative Activity (%),[7]; H-D-Ile-Pro-Arg-pNA taken as 100,2.8%
same,fibrinolytic activity (in words),fibrin,strong fibrinolytic activity
soybean trypsin inhibitor (protein) DFVLDNEGNPLENGGTYYILSDITAFGGIRAAPTGNERCPLTVVQSRNELDKGIGTIISSPYRIRFIAEGHPLSLKFDSFAVIMLCVGIPTEWSVVEDLPEGPAVKIGENKDAMDGWFRLERVSDDEFNNYKLVFCPQQAEDDKCGDIGISIDHDDGTRRLVVSKNKPLVVQFQKLDKESL,inhibition of the protease (in words),[1],not inhibited
same,Relative Activity (%),[1],100%
